The values that follow come from article PMC3970802.

The target of the assay is TLND2AXH, ataxin-1 residues 410-561, recombinant protein for size exclusion chromatography. As to the kind of experiment: SEC; analytical, Superdex-75 10/300 GL, 20 mM Tris-HCl pH 7, 150 mM NaCl, 1 mM TCEP; 200 ul of 150 uM protein incubated 24 h at 37 °C, each injected separately; 0.8 ml/min; dimer to monomers. Background: Size exclusion chromatography separates by hydrodynamic size, large species first.

One may read the stoichiometry N as a count of units in the complex or per binding partner. On to “TLND2AXH, ataxin-1 residues 410-561, recombinant protein for size exclusion chromatography (domain or fragment)”, for which the stoichiometry N was determined as 2.
